The text below walks through data of US20200157212A1 (Pfizer, published 2020).

T1: Cynomolgus monkey ROBO2 overexpressed on HEK293 cells (cynomolgus monkey, UniProt Q9HCK4 22-1378 (human entry))
T1 chain: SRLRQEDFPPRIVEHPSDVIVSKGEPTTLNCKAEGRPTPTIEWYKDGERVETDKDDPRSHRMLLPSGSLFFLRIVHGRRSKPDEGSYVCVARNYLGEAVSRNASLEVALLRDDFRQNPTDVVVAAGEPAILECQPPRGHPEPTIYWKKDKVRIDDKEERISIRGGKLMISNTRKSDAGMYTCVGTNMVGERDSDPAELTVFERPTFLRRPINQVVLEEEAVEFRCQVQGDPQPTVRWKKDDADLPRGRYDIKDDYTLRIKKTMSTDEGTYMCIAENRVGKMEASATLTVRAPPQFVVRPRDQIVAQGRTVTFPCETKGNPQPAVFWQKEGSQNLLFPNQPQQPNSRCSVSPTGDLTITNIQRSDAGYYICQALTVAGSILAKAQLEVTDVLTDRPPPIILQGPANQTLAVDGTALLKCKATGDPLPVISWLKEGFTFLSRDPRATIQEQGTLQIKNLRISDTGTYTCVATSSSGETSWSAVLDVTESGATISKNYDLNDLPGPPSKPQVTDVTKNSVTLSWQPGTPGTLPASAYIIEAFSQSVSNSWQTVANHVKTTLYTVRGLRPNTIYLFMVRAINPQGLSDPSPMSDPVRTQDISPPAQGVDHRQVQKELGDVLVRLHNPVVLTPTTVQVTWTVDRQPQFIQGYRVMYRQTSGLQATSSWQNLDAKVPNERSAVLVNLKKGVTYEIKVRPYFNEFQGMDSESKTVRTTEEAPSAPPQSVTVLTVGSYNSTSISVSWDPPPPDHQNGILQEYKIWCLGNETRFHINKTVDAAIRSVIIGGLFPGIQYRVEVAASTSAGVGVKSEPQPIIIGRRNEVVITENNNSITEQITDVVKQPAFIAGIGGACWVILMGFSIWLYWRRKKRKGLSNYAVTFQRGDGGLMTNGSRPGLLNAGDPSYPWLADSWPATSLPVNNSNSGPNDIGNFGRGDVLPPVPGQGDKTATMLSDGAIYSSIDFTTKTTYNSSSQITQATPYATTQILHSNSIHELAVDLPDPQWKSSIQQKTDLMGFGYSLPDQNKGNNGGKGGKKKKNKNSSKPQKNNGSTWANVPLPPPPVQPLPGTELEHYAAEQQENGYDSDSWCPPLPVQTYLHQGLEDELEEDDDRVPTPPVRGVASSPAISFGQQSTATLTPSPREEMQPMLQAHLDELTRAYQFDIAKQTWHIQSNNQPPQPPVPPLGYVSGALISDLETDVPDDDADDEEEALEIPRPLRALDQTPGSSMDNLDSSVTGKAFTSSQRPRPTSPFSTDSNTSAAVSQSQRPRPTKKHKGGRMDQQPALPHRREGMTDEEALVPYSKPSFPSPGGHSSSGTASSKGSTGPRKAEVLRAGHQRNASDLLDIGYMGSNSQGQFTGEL

B1: 93H2 (antibody, human IgG1, kappa, V domains shown)
VH: EVQLVQSGAEVKKPGASVKVSCKASGYTFTGYYMHWVRQAPGQGLEWMGWINPNSGATNFPQKFQGRVTMTRDTSITTAYMDLSRLRSDDTAVYYCARESGDDAFDIWGQGTMVTVSS
VL: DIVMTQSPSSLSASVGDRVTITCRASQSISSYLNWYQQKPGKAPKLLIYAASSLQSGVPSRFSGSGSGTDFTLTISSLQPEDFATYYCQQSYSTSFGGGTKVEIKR
notes: also called parental 93H2; 93H2 mAb
B2: Abcs35 (antibody, human IgG1, kappa)
heavy: EVQLVQSGAEVKKPGASVKVSCKASGYTFTGYYMHWVRQAPGQGLEWMGWINPKNGDTEFPQKFQGRVTMTRDTSITTAYMDLSRLRSDDTAVYYCARESGDDAFDIWGQGTMVTVSSASTKGPSVFPLAPSSKSTSGGTAALGCLVKDYFPEPVTVSWNSGALTSGVHTFPAVLQSSGLYSLSSVVTVPSSSLGTQTYICNVNHKPSNTKVDKKVEPKSCDKTHTCPPCPAPEAAGAPSVFLFPPKPKDTLMISRTPEVTCVVVDVSHEDPEVKFNWYVDGVEVHNAKTKPREEQYNSTYRVVSVLTVLHQDWLNGKEYKCKVSNKALPAPIEKTISKAKGQPREPQVYTLPPSREEMTKNQVSLTCLVKGFYPSDIAVEWESNGQPENNYKTTPPVLDSDGSFFLYSKLTVDKSRWQQGNVFSCSVMHEALHNHYTQKSLSLSPGK
light: DIVMTQSPSSLSASVGDRVTITCRASQSISSYLNWYQQKPGKAPKLLIYAASSLQSGVPSRFSGSGSGTDFTLTISSLQPEDFATYYCQQSVGLFFGGGTKVEIKRTVAAPSVFIFPPSDEQLKSGTASVVCLLNNFYPREAKVQWKVDNALQSGNSQESVTEQDSKDSTYSLSSTLTLSKADYEKHKVYACEVTHQGLSSPVTKSFNRGEC
notes: fully human IgG1; VH of Ab96 with VL of Ab123
B3: Abcs25 (antibody, human IgG1, kappa, V domains shown)
VH: EVQLVQSGAEVKKPGASVKVSCKASGYTFTGYYMHWVRQAPGQGLEWMGWINPKDGDTEFPQKFQGRVTMTRDTSITTAYMDLSRLRSDDTAVYYCARESGDDAFDIWGQGTMVTVSS
VL: DIVMTQSPSSLSASVGDRVTITCRASQSISSYLNWYQQKPGKAPKLLIYAASSLQSGVPSRFSGSGSGTDFTLTISSLQPEDFATYYCQQSVGLSFGGGTKVEIKR
notes: chain-shuffled IgG

This experiment deals with T1, Cynomolgus monkey ROBO2 overexpressed …. Nature of the experiment: flow cytometry, HEK293 cells, average of n = 3. On the procedure:
Binding of the antibodies was detected using a secondary fluorochrome conjugated anti-human IgG F(ab′)₂ antibody and samples were analyzed on a Fortessa cytometer (BD Biosciences). The fold ROBO2 selectivity was calculated as the geometric mean fluorescence intensity (Geo MFI) with ROBO2 cells/Geo MFI with ROBO1 cells. A fold change higher than 3 was considered to be ROBO2 specific (Table 2, Fold Selectivity). Some affinity matured clones had increased ROBO1 reactivity, for example Abcs 55, CTI-R2-10 and CTIR2-13.
Based upon several criteria, Abcs25 and Abcs35 were selected for further characterization. Using flow cytometry, improvement in the binding EC₅₀ to human ROBO2 relative to the parental 93H2 was evaluated. Starting at 6.7 nM, 11-point, 3-fold dilution series were made for each antibody and used to stain HEK293 overexpressing human ROBO2 as described above for the ROBO2 fold selectivity (Example 2). […] In addition to measuring improved binding to human ROBO2, it was important to ensure that high affinity binding to both cynomolgus monkey ROBO2 and rat ROBO2 was maintained. Using HEK293 cells overexpressing either cynomolgus monkey ROBO2 or rat ROBO2, the relative dose-dependent binding of 93H2, Abcs25 and Abcs35 was evaluated as described above. High affinity binding to both cynomolgus monkey and rat ROBO2 was maintained in Abcs25 and Abcs35 (Table 4). […] Briefly, Abcs35 was immobilized to 300 resonance units (RU) on a CM5 chip. Association of ROBO2 Ig1-Ig2-His (ROBO2) was measured over 5 minutes and dissociation was followed for a period of 10 minutes.
In the case of B1, the midpoint of the response, the EC50, lay at 0.316 nM.
B2 came in with an EC50 of 0.145 nM.
With B3, the EC50 was 0.128 nM.

In general, EC50 refers to the concentration that produces a half-maximal response.
